Test results taken from US11162953B2, “Protein binding domains stabilizing functional conformational states of GPCRS and uses thereof” (priority 2010, dated 2021).
“Also recorded” adds a separate entry of the source. Counter-ions that a name gives are not always drawn. Like-named read-outs stand apart in the source and are kept apart here.

Assays:
β2AR [1] = molecular target: T1, β2AR (Homo sapiens, UniProt P07550); format: binding
β2AR [2] = molecular target: T1, β2AR; assay: Monobromobimane fluorescence of purified mBBr-labeled β2AR; format: biochemical; design: made in house; details: 1 μM nanobody, β2AR bound to full agonist isoproterenol
From the text: To investigate the effect of nanobodies on movement of the cytoplasmic domain of TM6 we labeled purified β2AR at C265 with monobromobimane (mBB-β2AR). […] In mBB-β2AR, the addition of agonist together with G protein results in larger fluorescent changes than either agonist or G protein alone. This is compatible with the cooperative interactions observed in agonist competition binding assays (Yao et al. 2009).
Purified β2AR was reacted with 1:1 equivalent of monobromobimane (mBBr, Invitrogen) in 100 mM NaCl, 20 mM HEPES, pH 7.5, 0.1% dodecyl maltoside and incubated overnight on ice in the dark. The fluorophore-labeled receptor was purified right before use by gel filtration on a desalting column equilibrated with the same buffer. […] All experiments were performed at 25° C. […] To determine the effect of nanobodies and ligands, three individual labeled protein samples were incubated with 1 μM nanobody or 10 μM Isoproterenol or both. Emission spectra of the samples were taken after 1 hour incubation.

β2AR [3] = assay: Size exclusion chromatography of nanobody with purified agonist- or inverse agonist-bound β2AR; format: binding, human; details: 20 μM β2AR bound to agonist or inverse agonist, 40 μM nanobody
Description: The mixture was then analyzed by Size Exclusion Chromatography (SEC), which separates protein on the basis of size. Seven of the nanobodies bound to purified β2AR and migrated as a complex on SEC only in the presence of agonist and not an inverse agonist (an example is shown in FIG. 1, Panel a, FIGS. 3A, 3B, and FIG. 4).
Agonist selective nanobodies were identified by size exclusion chromatography following incubation of 20 μM agonist or inverse agonist-(carazolol-) bound β2AR-365N for one hour at RT in the absence or presence of 40 μM nanobody.

β2AR [4] = molecular target: T1, β2AR; details: agonist competition binding, Sf9 membranes
From the text: The IC50 values used for calculations of Ki values were obtained from means of pIC50 values determined by nonlinear regression analysis using Prism (GraphPad Software, San Diego, Calif.) and the s.e. interval from pIC50±s.e.

[5] = ratio of IC50 with irrelevant Nb to IC50 with 500 nM Nb80, 3H-DHA radioligand

Molecule	Potency shift (β2AR [1]; [5])	complex formation with β2AR on SEC (β2AR [3])	enhancement of the affinity of β2AR for the agonist isoproterenol in the presence of nanobody (β2AR [4])	other results
CC(CCc1ccc(O)cc1)NCCc1ccc(O)c(O)c1 (centres unmarked) [dobutamine, dobutamine hydrochloride]	2.3	–	–	–
CC(Cc1ccc(O)cc1)NCC(O)c1cc(O)cc(O)c1 (centres unmarked) [fenoterol, fenoterol hydrobromide]	3.7	–	–	–
CCC(NC(C)C)C(O)c1ccc(O)c2[nH]c(=O)ccc12 (centres unmarked) [procaterol, procaterol hydrochloride]	2.3	–	–	–
CC(NCCc1ccc(O)cc1)C(O)c1ccc(O)cc1 (centres unmarked) [ritodrine, ritodrine hydrochloride]	2.7	–	–	–
metaproterenol hemisulfate salt	–	–	–	Potency shift (β2AR [1]): 2.9
NB67: β2AR-specific nanobody, SEQ ID NO:20 (protein, listed as Lama glama) VHH: QVQLQESGGGLVQAGGSLRLSCAASGTISSFIAMGWYRQSPGKQRELVAGITSGGETNYEDSVKGRFTISRDNAKNTLYLQMNTLKPEDTAVYYCNAQVFADIFNLINYWGQGTQVTVSS	–	elutes at an earlier volume	two- to thirty-fold	nanobody-induced change of mBBr fluorescence (β2AR [2]; listed as 67): Comparable results; also recorded: stabilize a more active state of the β2AR
NB84: β2AR-specific nanobody, SEQ ID NO:29; the tested NB84 is assumed to be this one (protein, listed as Lama glama) VHH: QVQLQESGGGLVQAGGSLRLSCAASGSIFSINAMGWYRQAPGKQRELVAAITSGGSTTYADSVKGRFTVSRDNAKNTVYLQMIRLKPEDTAVYYCHVRDIYSDFLGQYEYDYWGQGTQVTVSS	–	elutes at an earlier volume	two- to thirty-fold	nanobody-induced change of mBBr fluorescence (β2AR [2]; listed as 84): Comparable results; also recorded: stabilize a more active state of the β2AR
NB65: β2AR-specific nanobody, SEQ ID NO:5 (protein, listed as Lama glama) VHH: QVQLQESGGGLVQAGGSLRLSCAASGSIFSINTMGWYRQAPGKQRELVAAIHSGGSTNYADSVRGRFTISRDNAKNTVYLQMNSLKPEDTAVYYCNVKDYGAVLYEYDYWGQGTQVTVSS	–	elutes at an earlier volume	two- to thirty-fold	nanobody-induced change of mBBr fluorescence (β2AR [2]; listed as 65): Comparable results; also recorded: stabilize a more active state of the β2AR
NB69: β2AR-specific nanobody, SEQ ID NO:26 (protein, listed as Lama glama) VHH: QVQLQESGGGLVQPGGSLRLSCAASGSIFSINAMGWYRQAPGKQRDLVASITSGGSTNYADSVKGRFTISRDNAKNTVYLQMNSLKPEDTAVYYCNVQGTGPSSWLFNEYDYWGQGTQVTVSS	–	elutes at an earlier volume	two- to thirty-fold	nanobody-induced change of mBBr fluorescence (β2AR [2]; listed as 69): Comparable results; also recorded: stabilize a more active state of the β2AR
NB72: β2AR-specific nanobody, SEQ ID NO:24; the tested NB72 is assumed to be this one (protein, listed as Lama glama) VHH: QVQLQESGGGLVQPGGSLRLSCAASGFTFSGYAMNWVRQAPGKGPEWVSAINSGGGSTSYADSVKGRFTISRDNAKNTVYLQMNSLKPEDTAVYYCHARDIYSDFLGQYEYDYWGQGTQVTVSS	–	elutes at an earlier volume	two- to thirty-fold	nanobody-induced change of mBBr fluorescence (β2AR [2]; listed as 72): Comparable results; also recorded: stabilize a more active state of the β2AR
NB71: β2AR-specific nanobody, SEQ ID NO:25 (protein, listed as Lama glama) VHH: QVQLQESGGGLVQPGGSLRLSCAASGFAFSSYELRWYRQAPGKQHELVAGITTGGNTYYADSVKGRFTISRDNAKNTVYLQMSNLRPEDTAVYACNANWDLLSDYWGQGTQVTVSS	–	elutes at an earlier volume	two- to thirty-fold	nanobody-induced change of mBBr fluorescence (β2AR [2]; listed as 71): Comparable results; also recorded: stabilize a more active state of the β2AR
